{
  "source": "paper doi:10.1101/2024.04.26.591336",
  "target": "NOTCH2^ΔERA-TurboID (human)",
  "assay": "proximity labelling",
  "data": [
    {"substance": "endogenous human NOTCH2 (from UniProt Q04721 26-2471) (natural protein)", "values": [
      {"measurement": "Log2FC NICD2RA-vs-NICD2", "value": -2.03, "unit": "Log2FC"},
      {"measurement": "percent of the NOTCH2 recovered, NICD2RA against NICD2", "value": 13, "unit": "%"}
    ]}
  ]
}
